Experiment: soluble on expression in E. coli; label from the status in PepcDB or PDB records

Row | Sequence | soluble on expression in E. coli
1 | MMSGQGKRLMVMAGGTGGHVFPGLAVAHHLMAQGWQVRWLGTADRMEADLVPKHGIEIDFIRISGLRGKGIKALIAAPLRIFNAWRQARAIMKAYKPDVVLGMGGYVSGPGGLAAWSLGIPVVLHEQNGIAGLTNKWLAKIATKVMQAFPGAFPNAEVVGNPVRTDVLALPLPQQRLAGREGPVRVLVVGGSQGARILNQTMPQVAAKLGDSVTIWHQSGKGSQQSVEQAYAEAGQPQHKVTEFIDDMAAAYAWADVVVCRSGALTVSEIAAAGLPALFVPFQHKDRQQYWNALPLEKAGAAKIIEQPQLSVDAVANTLAGWSRETLLTMAERARAASIPDATERVANEVSRVARALEHHHHHH | soluble
2 | MPKGSGKVIAQNKKAFHDYFIEETYEAGLVLQGTEIKSIRAGRVNLKDAFARVHNGEVWVHNMHISTYEQGNRFNHDPLRTRKLLLHKKEIEKLAGASKETGYALVPVRIYLKNGFAKMALGLAKGKKQYDKRHDLKEKEAKREIARAFRDRQKM | not soluble
3 | MSLAPSTYYDAKTRPPSARAQRDAVLGPALRQLWKDNYCVYGAHKLWKTARRAGYDVGRDQVARLMRAAGIQGVRRGKRVRTTKPDPVAARHPDLVKRKFTATAPNQLWVTDLTFVPTWAGVAYVCFIVDAHSRMIVGWRVASHMRTSMVLDALEMARWSRGTTLQNLICHSDAGSQFTSIRYGERLAEIGGVPSIGTVGDSFDNALAETVNGYYKAELIYGPARSGPWKTVEDVELATLSWVYWHNTSRLHSYLGDLPPAEFEAAFYDASRSGQPLVEIQEGHHHHHH | soluble
4 | MKRLILPIACGICTVTSDAQTDKQPHPNVIFIYADDLGYKDLSCTGSRFYETPHIDKLAREGVCFTQSYAACPVSSPSRAALLTGKYPARINLTDYIPGDRAYGPHKNQRLASLPFNLHLSKDEITMAEAFRQNGYSTFMAGKWHLAESAEYYPEQNGFDINIGGNNTGHPSKGYFSPYGNPQLKDGPEGEYLTDRLTDEVIRYISEPKEKPFFVYLSYYTVHLPLQAKAEKIAKYRRKLSRAVPADSSFVKKGETYHKLVQDIPAYAAMVESLDENIGRLLDTLHRSGLDERTIVVFTSDNGGMATSNTTRNIPTSNLPLRAGKGYLYEGGIKVPAIIRWSGHLKGRQVSDTPIIGTDYYPTLLDLCGLPLLPGQHVDGVSMKPVLQGGRLSRPSLFWHYPHYSGGLGGRPSAAIREGDYKLIEFFEDHHVELYNVIQDESEEKDLSQIYPEIADGLRKKLYLWYKEVGARMPVDNPHYVSPVKDSDSFENKLEHHHHHH | not soluble
5 | MAENVGSDSSEFESISSSQKSYLKNCPFAGHEALPTKSTDSDNTEVLGNQISPAVVKTPILSFSSPTSLDSINDDVFRTPPENASLSSAAESEPRVGVSEIKLQGGSNLTTPFSMAETTLVSSSPSLPAENVRVSESNLKSSSSTAKTTPVSASPSVNARVSESNLNSSSSTTPVSVSPSEKVRVFETTPVSASPSEKVRVFETKCHSDSGDSVPLSSSPPSVAADDVRVPAKHLDSDSSPPTAIGRTMVLVKQRISASDNSASSSASEGTKVSKTENSGEVLPFKEIIEALLRNSGEKLNERDDKVSYVEILKQCGLKFPK | soluble
6 | MLEILGKASSINVRKVLWTCAELDLPYRREDWGSGFRDTHAAEFLALNPNAMVPVLRDGELVLWESNSIIRYLANRYAGERLYPQQAAPRARVDQWLDWQASDLNRSWSYAFMSLVRQSPAHRDAAQVEASLRGWTGFMEILEGQLLRTGAYVAGETFSLADIAIGLSVNRWYETPFEHPSLPAVRAYYERLGAR | not soluble
7 | SSSSQHFNLNFTITNLPYSQDIAQPSTTKYQQTKRSIENALNQLFRNSSIKSYFSDCQVLAFRSVSNNNNHTGVDSLCNFSPLARRVDRVAIYEEFLRMTHNGTQLLNFTLDRKSVFVD | soluble
8 | MKKGVLIAFEGIDGSGKSSQATLLKDWIELKRDVYLTEWNSSDWIHDIIKEAKKKDLLTPLTFSLIHATDFSDRYERYILPMLKSGFIVISDRYIYTAYARDSVRGVDIDWVKKLYSFAIKPDITFYIRVSPDIALERIKKSKRKIKPQEAGADIFPGLSPEEGFLKYQGLITEVYDKLVKDENFIVIDGTKTPKEIQIQIRKFVGELIDNSF | soluble
9 | MGSDKIHHHHHHMTTSTPSASPLALSPSRANDYQQCPLLYRFRAIDKLPEPKTVAQVKGTLVHAVLEEMHGWPRNERLFPAAVKRLKPHWSLMCSKDTELVSLVPEEDTYDFLVECRSLLRGYFEMENPQGFDALACEMYVNATLPNGVPIRGFIDRVDKAPTGEIRVVDYKTGKKPIPRFSQQAQFQMRFYALVYWRIYGRIPDQLRLMYLKVADSMFLTPSREELEYFERDIQELWEKIVTDGETGQFRPKTSKLCGWCSFQNLCPAFDGTPPAYPGWPGIADAPPCSTVDASKGLTG | not soluble
10 | MGGLTLFAAQGCKAPKQVAEQAEHPNIIYVFPDQYRNQAMGFWNQEGFRDKVNFRGDPVHTPNIDTFARESMVLTSAQSNCPLSSPHRGMLLTGMYPNRSGVPLNCNSTRPISSLRDDAECIGDVFSKAGYDCAYFGKLHADFPTPNDPENPGQYVETQRPVWDAYTPKEQRHGFNYWYSYGTFDEHKNPHYWDTDGKRHDPKEWSPLHESGKVVSYLKNEGNVRDTKKPFFIMVGMNPPHSPYRSLNDCEEQDFNLYKDQPLDSLLIRPNVDLNMKKAESVRYYFASVTGVDRAFGQILEALKQLGLDKNTVVIFASDHGETMCSQRTDDPKNSPYSESMNIPFLVRFPGKIQPRVDDLLLSAPDIMPTVLGLCGLGDSIPSEVQGRNFAPLFFDEKAEIVRPAGALYIQNLDGEKDKDGLVQSYFPSSRGIKTARYTLALYIDRKTKQLKKSLLFDDVNDPYQLNNLPLDENKEVVEQLYREMGTMLKEIDDPWYTEKILSDRIPYLEHHHHHH | not soluble
11 | MDNEKKSMYEPGVILGGCTLRRQLNDSGEAMVFLAESGNEEKKEVIIKFFKCGYGEDEIKYLDVLTNHEQRRNIVEMLKSFETPEIRLGMVFKRYETDLFGILGDRQRLQPSTIQKYMKGLMEGLQFIHRMDYIHRDIKPENLLIDGETICIADFGETVLSTSDKVVKPGTLPYLTIEHILGYKENTKSMDIWAAACVLGAMFQGSHLFSQNSNLQTIHAIRLLLGNHTKETWPEMDKLPLMQSIELPPVGEKTFSKIENITKEAADLMEQMMKYDPTKRLMASQVLNHEYFKKEASAQAN | not soluble
12 | SLLSPAAERSQGSLLSVIMEILKDQSHRELFGLELGSGTGQHVVHFAQEMPFVTWLPSDTKEESRNSIRAYIEATKAKTVLEPVHLDASEPWDKWAGLPQNSCDIILAINLLQYTPFSTAEGVFKGSGQILKQNGLLMTYGPYAINGTITPICNEQLDETLRQMNPEWGLPDIDVLRQLAFSNGMRMERMIEMPESNKCLVFRKL | soluble
13 | MGSDKIHHHHHHVLADAVAWTARTLPVRPSVPVLAGMLLDADDVDGHQRLTLSSFDYEVSAQVSVDVDIDEPGRILVSGKLLAEIVRNLPPQTVEVSTDGAKVVVSCGSAKFTILTLPVEDYPTLPAMPALTGSVLSDTFAAAVSQVAVAAGRDDTLPMLTGVRIEIEGSTVTLVSTDRYRLAVRELTWTPEDPNVSAVALVPAKTLADTAKSLTGGAQISIALSTAENGGEGMIGFEGGGRRTTTRLLEGEFPKYRKLLPESFNSVAEVQKNEFIEAVKRVSLVAERNTPLRLSFTSDRLVLEAGTGEEAQAVEELSATLEGDDIQIAFNSTFLLDGLNAIESDVAHLQFTTSTKPAIITGKPADDGTASDYRYLIMPVRISN | not soluble
14 | HMSMYAVNAGIAKTTVQILVDHIAHSGWLDEAASAVLLDIVRTPISPELKPVGQDGNISQKTEDLVGPYELHDFFIYHFLHNEYKPSKIYYLAGVAFKGIYTKAEIKKWMMVFFRRFFAQQYKRNCMPDGPKVSCISLSPRGAWRMASDASSALWLDEIAKFETD | not soluble
15 | MAVRIVTDSSSGLPAEIAEELGITVVDLHLVASENQVSTAGLSALELTAAYARQLERGGDAGVVALHLSKELSSTWSAAHTAAAVFDGTVDVVDTQSVGMCVGAAAMAAARLAQGGASLRECADMARDTLRRSETWLYLHRMEEMRRSGRITTATAVVSAALATKPIMQLRGGHVELAVKTRTQSKAFARLVAVISDRCAGEPAFVAIQHHQALEAAHSLQSQLTAALPKGSSFMIMDMDQALSVHCGVGALGISVVFSSYSDTAPIDLSTTS | not soluble
16 | GSHMETVFTEKAPKPVGPYSQAIKVGNTLYVSGQIPIDPRTNEIVKGDIKVQTRQVLDNIKEIVKAAGFSLSDVAMAFVFLKDMNMFNDFNSVYAEYFKDKPPARVTVEVSRLPKDALIEIAVICSKG | soluble
17 | MTDYDSLDDNAFRLMVREWIAANYPQRIRNPPRRLGREETREWYLLLSRQGWLCPGWPREYGGMGLSAGKQLIMMEEMEEYGCARLPDSGVTMLGPLLIRYGDEAQRARFLPRILSGEDIWCQGYSEPNAGSDLASLRTEARLENGEWVINGQKTWTTMGSEANWIFLLVRTERSAKAQHGISFLLVPMDSLGIEVRPILNLELHGEFCEVFFNDVRVPYDSLVGEINQGWSMAKALLGFERIFLGSPKQSTFALQRLERLARHLGLWHDPLFARRFAALSMDLDSHKALYERFAERLRRGESLGPEVSMLKIFQSELFQRISELGLEIAGEDSALLQPFAEDPELHPAGIFIQSRPTTIYGGSNEIQRNILAKSVLGLPG | not soluble
18 | MGSDKIHHHHHHMDFYQVIKTRTSTKKFKNTPIAAPKLDNMLNAAMMSPSWKNKTSYSFVIVDDERKKDAIANFIINSDEDAKNSVKDAPMVVAIVGDTTESGHINGKEYYLVDSAIAMEHFVLAAANEGYGTCWIASFDEKRMKDELRIPDKYSVVAITPVGEVGESKAHYEPKDIENHIYRNYWSMPYSEKKHLVMK | not soluble
19 | AKVNIKPLEDKILVQANEAETTTASGLVIPDTAKEKPQEGTVVAVGPGRWDEDGEKRIPLDVAEGDTVIYSKYGGTEIKYNGEEYLILSARDVLAVVSK | soluble
20 | MGSDKIHHHHHHMRRLFTSESVTEGHPDKIADQISDAILDAMLEQDPRSRVAVETLVTTGLVIIAGEVTTRAYVEIPDIARKTILEIGYTRAKYGFDGETCGVLTSIHSQSPDIALGVDKALEVKTGEEVADEFEALGAGDQGIMFGYATNETPEYMPLPITLAHKLAMRLAEVRKNGTLPFLRPDGKTQVTIEYEDDKPVRVDTVLISTQHDPDISQADLREAIIEHVINPVIPEQYRDDKMKILVNPTGRFVLGGPMADTGLTGRKIIVDTYGGWVPHGGGAFSGKDPTKVDRSAHYMARYVAKNVVAAGLADKFLIQLSYAIGVAKPVSIMIDTYGTAKVDEDKLLKVITELFDFRPGAIIKKLNLLRPIYRKTAAYGHFGRNEEEFTWEKLDMVDELKRAFNM | not soluble
21 | MGSDKIHHHHHHMSNRHDADTPARLSSGIDGIDDILGGGLTPHRMYLVEGAPGTGKTTLALQFLLKGVEEGQGGLYITLSETRPELIAVAESHGWDISRFTILELLSDEGLDPQYEQTVLHPAEVELGETVRNVIQHVDELKPARIVLDSLSELRLLSQNPLRYRRQILALKRYFATRECTVLLLDDNSSDPGDVQLHSIAHGVISLDNLVHDYGGNRRRARVAKMRGIKFREGYHDFTLDTGGIHVYPRLVAAEHHADFSTEVVSTGTAGLDALLGGGLIPGTNALMIGPSGVGKTTTVVSCLIAALERGERCVYYVFDETLTTLMTRCATLGIYLAPHVESGLLTLRQIDPAEISPGEFASDVRRSVEKKGVRYVAIDSLNAYLQAMPGERYLLLQMHELLGYLNQQGIVTMLVLGQHGIIGEVQNDIDISYLSDVVVLFRYFEHHGEVLTAITAVKSRANAHERSIRQFRLGVNGVEVGDALRDFEGVLSGLPAYRGSTALLGATNRVIETPGK | not soluble
22 | MAISVVDLFSIGIGPSSSHTVGPMRAALTYISEFPSSHVDITLHGSLAATGKGHCTDRAVLLGLVGWEPTIVPIDAAPSPGAPIPAKGSVNGPKGTVSYSLTFDPHPLPEHPNAVTFKGSTTRTYLSVGGGFIMTLEDFRK | not soluble
